Test results published in US20260250318A1, “COMPOSITIONS AND METHODS FOR CROSSING THE BLOOD BRAIN BARRIER” (VOYAGER THERAPEUTICS, INC., priority 2022, published 2026).
Where a chain is given by its changes, count along the chain named.

Columns and labels:
[1] = test system: brain, spinal cord, liver and peripheral tissues; experiment: Individual capsid characterization in mice (qPCR transgene mRNA, viral DNA, IVIS, anti-GFP IHC); conditions: for DNA (viral genome quantification), Brain, relative to the AAV9 control / mRNA (transgene expression), Brain, relative to the AAV9 control / DNA (viral genome quantification), Liver, relative to the AAV9 control / mRNA (transgene expression), Liver, relative to the AAV9 control: BALB/c mice, tail vein 5e11 VG/dose; for anti-GFP immunohistochemistry staining in brain and spinal cord: compared to AAV9 control
Protocol: AAV particles were generated with each of these capsid variants encapsulating a luciferase-EGFP transgene driven by a CMV/chicken beta actin promoter in a single stranded viral genome. Each capsid variant and AAV9 control were tested by intravenously administering by tail vein injection, the AAV particle formulation at 5e11 VG/dose (2.5E13 vg/kg) to three female BALB/c mice. The in-life period was 28 days and then various CNS and peripheral tissues were collected for measuring transgene mRNA, transgene protein, and viral DNA (biodistribution).
At 28 days post-injection of the AAV particles encapsulated in the TTM-001 capsid variant (AAV_TTM-001), mice were injected with luciferin and their brains were harvested for IVIS imaging.
The brains isolated from mice injected with the AAV particles encapsulated in the TTM-001 capsid variant (AAV_TTM-001) or the TTM-002 capsid variant (AAV_TTM-002) were assayed by qPCR for the presence of transgene RNA as a measure of transgene expression, and the presence of viral DNA as a measure of viral genome levels. Data were provided as fold over AAV9 (Table 12).
The brain tissues and spinal cords of the mice were also subjected to anti-GFP immunohistochemistry staining to evaluate overall CNS tropism and biodistribution.
Peripheral tissues were also isolated from the mice intravenously injected with the AAV particles encapsulated in the TTM-001 capsid variant or the TTM-002 capsid variant for analysis by qPCR and/or GFP immunohistochemical staining. Transgene mRNA levels and viral genome DNA levels were quantified in the liver by qPCR and the fold over AAV9 was calculated for each capsid variant (Table 12).

ALPL = biological target: T1, ALPL (Homo sapiens, UniProt P05186); format: cell-based; conditions: for fold increase in transduction by luciferase assay in cells expressing ALPL: relative to pCMV6 transfected cells, 24 hours post-transduction; for Luciferase Activity (RLU): Table 30, ALPL transfected cells
T1 construct: expressed in transfected cells; host or cells: HEK 293T
T1 sequence (P05186 whole entry, looked up): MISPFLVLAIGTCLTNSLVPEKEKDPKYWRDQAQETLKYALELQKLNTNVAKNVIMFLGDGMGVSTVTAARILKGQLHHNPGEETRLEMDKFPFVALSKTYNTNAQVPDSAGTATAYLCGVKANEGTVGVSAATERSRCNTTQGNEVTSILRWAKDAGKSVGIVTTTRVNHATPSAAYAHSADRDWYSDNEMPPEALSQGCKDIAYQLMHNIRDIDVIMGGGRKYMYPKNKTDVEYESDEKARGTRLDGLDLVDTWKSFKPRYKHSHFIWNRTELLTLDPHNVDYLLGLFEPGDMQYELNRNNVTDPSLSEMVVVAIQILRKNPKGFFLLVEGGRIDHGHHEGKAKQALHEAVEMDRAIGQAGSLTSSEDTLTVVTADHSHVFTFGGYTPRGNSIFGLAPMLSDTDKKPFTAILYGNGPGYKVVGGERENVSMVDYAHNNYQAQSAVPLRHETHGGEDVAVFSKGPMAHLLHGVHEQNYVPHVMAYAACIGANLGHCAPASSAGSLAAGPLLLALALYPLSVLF
Protocol: Briefly, a transduction assay was performed in that HEK 293T cells were transfected via calcium phosphate transfection with a plasmid expressing ALPL, an AAVR positive control, or a pCMV6 negative control (250 ng or 500 ng of plasmid). AAVR is a universal AAV entry factor involved in AAV transduction. […] At 24-hours post-transduction, GFP expression and luciferase activity were measured to quantify and observe AAV cellular transduction. […] The TTM-002, TTM-006, TTM-018, and TTM-019 capsid variants all comprised the SPH motif immediately subsequent to position 455, numbered relative to SEQ ID NO: 138 and a positive residue in one of the next three residues subsequent to the SPH motif.
To determine if the TTM-001 and TTM-002 capsid variants could bind to both the human ALPL protein (NM_000478.6, which is incorporated by reference herein) and the mouse ALPL ortholog (NM_001287172.1, which is incorporated by reference herein), HEK 293T cells were transfected via calcium phosphate transfection with a plasmid expressing human ALPL, the murine ortholog of ALPL, or a pCMV6 negative control. At 24 hours post-transfection, the HEK 293T cells expressing the ALPL receptor were transduced with an AAV particle comprising the TTM-001 capsid variant, the TTM-002 capsid variant, or an AAV9 control capsid protein, expressing a Luc2-GFP payload. At 24-hours post-transduction, luciferase activity (RLU) was measured to quantify AAV cellular transduction.

AAV9: wild-type AAV9 control capsid [reference compound]
DNA (viral genome quantification), Brain, relative to the AAV9 control ([1]; 28 days, qPCR): 1.0 fold over AAV9
mRNA (transgene expression), Brain, relative to the AAV9 control ([1]; 28 days, qPCR): 1.0 fold over AAV9
DNA (viral genome quantification), Liver, relative to the AAV9 control ([1]; 28 days, qPCR, liver): 1.0 fold over AAV9
mRNA (transgene expression), Liver, relative to the AAV9 control ([1]; 28 days, qPCR, liver): 1.0 fold over AAV9
fold increase in transduction by luciferase assay in cells expressing ALPL (ALPL): not affected

B1: TTM-001: AAV9 capsid variant comprising SPHSKA (SEQ ID NO: 941) in loop IV (protein)
chain 1: MAADGYLPDWLEDNLSEGIREWWALKPGAPQPKANQQHQDNARGLVLPGYKYLGPGNGLDKGEPVNAADAAALEHDKAYDQQLKAGDNPYLKYNHADAEFQERLKEDTSFGGNLGRAVFQAKKRLLEPLGLVEEAAKTAPGKKRPVEQSPQEPDSSAGIGKSGAQPAKKRLNFGQTGDTESVPDPQPIGEPPAAPSGVGSLTMASGGGAPVADNNEGADGVGSSSGNWHCDSQWLGDRVITTSTRTWALPTYNNHLYKQISNSTSGGSSNDNAYFGYSTPWGYFDFNRFHCHFSPRDWQRLINNNWGFRPKRLNFKLFNIQVKEVTDNNGVKTIANNLTSTVQVFTDSDYQLPYVLGSAHEGCLPPFPADVFMIPQYGYLTLNDGSQAVGRSSFYCLEYFPSQMLRTGNNFQFSYEFENVPFHSSYAHSQSLDRLMNPLIDQYLYYLSKTINGSGSPHSKAQNQQTLKFSVAGPSNMAVQGRNYIPGPSYRQQRVSTTVTQNNNSEFAWPGASSWALNGRNSLMNPGPAMASHKEGEDRFFPLSGSLIFGKQGTGRDNVDADKVMITNEEEIKTTNPVATESYGQVATNHQSAQAQAQTGWVQNQGILPGMVWQDRDVYLQGPIWAKIPHTDGNFHPSPLMGGFGMKHPPPQILIKNTPVPADPPTAFNKDKLNSFITQYSTGQVSVEIEWELQKENSKRWNPEIQYTSNYYKSNNVEFAVNTEGVYSEPRPIGTRYLTRNL
chain 2: GSGSPHSKAQNQQT
luciferase signal in brain (IVIS imaging) ([1]; 28 days post-injection, 5e11 VG/dose IV, vs AAV9): Robust luciferase signal
DNA (viral genome quantification), Brain, relative to the AAV9 control ([1]; 28 days, qPCR): 32.0315 fold over AAV9
mRNA (transgene expression), Brain, relative to the AAV9 control ([1]; 28 days, qPCR): 30.4503 fold over AAV9
DNA (viral genome quantification), Liver, relative to the AAV9 control ([1]; 28 days, qPCR, liver): 0.4802 fold over AAV9
mRNA (transgene expression), Liver, relative to the AAV9 control ([1]; 28 days, qPCR, liver): 1.2356 fold over AAV9
anti-GFP immunohistochemistry staining in brain and spinal cord [1]: significantly stronger staining and payload expression
transgene mRNA levels in the brain, fold over AAV9 ([1]; qPCR, 28 days, 5e11 VG/dose IV): 30 fold
viral genome (DNA) concentrations in the brain, fold over AAV9 ([1]; qPCR, 28 days, 5e11 VG/dose IV): 32 fold
viral genome DNA levels in the liver compared to AAV9 ([1]; qPCR, liver): only half as much
Luciferase Activity (RLU) (ALPL): 93,268 RLU

B2: TTM-002: AAV9 capsid variant comprising HDSPHK (SEQ ID NO: 2) in loop IV (protein)
chain 1: B1 chain 1 with S454H, G455D, S459K, K460S, A461G
chain 2: GHDSPHKSGQNQQT
DNA (viral genome quantification), Brain, relative to the AAV9 control ([1]; 28 days, qPCR): 47.2810 fold over AAV9
mRNA (transgene expression), Brain, relative to the AAV9 control ([1]; 28 days, qPCR): 66.2161 fold over AAV9
DNA (viral genome quantification), Liver, relative to the AAV9 control ([1]; 28 days, qPCR, liver): 0.0277 fold over AAV9
mRNA (transgene expression), Liver, relative to the AAV9 control ([1]; 28 days, qPCR, liver): 0.2016 fold over AAV9
anti-GFP immunohistochemistry staining in brain and spinal cord [1]: significantly stronger staining and payload expression
transgene mRNA levels in the brain, fold over AAV9 ([1]; qPCR, 28 days, 5e11 VG/dose IV): 66 fold
transgene mRNA levels in the liver compared to AAV9 ([1]; qPCR, liver): greatly reduced
viral genome DNA levels in the liver compared to AAV9 ([1]; qPCR, liver): greatly reduced
transduction by immunofluorescence microscopy in cells expressing ALPL (ALPL; GFP, compared to AAV9 control capsid): a significant increase in the transduction
Luciferase Activity (RLU) (ALPL): 46,182 RLU
fold increase in transduction by luciferase assay in cells expressing ALPL (ALPL): 45 fold
